By stoichiometry N is commonly meant the number of molecules, sites or subunits per partner or assembly.

This is an account of results in PMC3814365 (Nucleic Acids Research, 2013).

The assay addresses Untagged Rps28a (S. cerevisiae, UniProt Q3E7X9 1-67). Briefly: SEC-MALS. A general note: In gel filtration, larger molecules generally elute earlier.

Untagged Rps28a, sequence (Q3E7X9 whole entry): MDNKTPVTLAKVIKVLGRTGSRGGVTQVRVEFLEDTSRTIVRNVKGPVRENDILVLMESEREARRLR

B1: Edc3(201–231) lacking the His-GST tag (peptide, UniProt P39998 201-231, looked up)
chain: DDIDDPKYLPITQSLNITHLIHSATNSPSIN
For B1, the “stoichiometry N” value amounted to 1.
